# Assay results taken from paper PMC9986795, “Structural basis of DNA binding by YdaT, a functional equivalent of the CII repressor in the cryptic prophage CP-933P from Escherichia coli O157:H7” (Acta Crystallographica. Section D, Structural Biology, 2023).
# B1: YdaT from the cryptic prophage CP-933P of Escherichia coli O157:H7 (wild-type YdaT) (natural protein)
# chain: KIKHEHIRMAMNVWAHPDGEKVPAAKITKAYFELGMTFPELYDDSHPEALARNTQKIFRWLDKDTPDAVEKMQALLPAIEKAMPPLLVARMRSHSSEYYREIVERRDRLVKDVDDFVASAVVLYDQMNRGGPAGNAVVMH
# notes: YdaT, E. coli O157:H7 prophage CP-933P, open reading frame in pET-28b; also called CP-933P YdaT; full-length protein
# Biological target: the molecule itself
# Test: crystal structure; sitting drop, 0.1 M bis-Tris pH 5.5, 2.0 M ammonium sulfate, 19°C; free YdaT, a tetramer in the asymmetric unit, 2.4 Å
protein,measurement,value
B1,stoichiometry N,4
